Source: paper PMC4432371, “Functional Characterization of Novel Sesquiterpene Synthases from Indian Sandalwood, Santalum album” (Scientific Reports, 2015)

Experiments:
SaFDS = SaFDS (Santalum album, UniProt E3W209); assay: GC / GC-MS of (E,E)-farnesol after alkaline phosphatase; assay type: biochemical; details: 25 mM HEPES, 10% glycerol, 5 mM DTT, 10 mM MgCl2, pH 7.4, 30 °C
SaSS = SaSS (Santalum album, UniProt E3W202, Y539W); assay: GC / GC-MS product analysis; assay type: biochemical; details: data not shown; mutant sequence NCBI JQ690659; assay form of the mutant not described
Sequence of SaSS (E3W202 whole entry Y539W): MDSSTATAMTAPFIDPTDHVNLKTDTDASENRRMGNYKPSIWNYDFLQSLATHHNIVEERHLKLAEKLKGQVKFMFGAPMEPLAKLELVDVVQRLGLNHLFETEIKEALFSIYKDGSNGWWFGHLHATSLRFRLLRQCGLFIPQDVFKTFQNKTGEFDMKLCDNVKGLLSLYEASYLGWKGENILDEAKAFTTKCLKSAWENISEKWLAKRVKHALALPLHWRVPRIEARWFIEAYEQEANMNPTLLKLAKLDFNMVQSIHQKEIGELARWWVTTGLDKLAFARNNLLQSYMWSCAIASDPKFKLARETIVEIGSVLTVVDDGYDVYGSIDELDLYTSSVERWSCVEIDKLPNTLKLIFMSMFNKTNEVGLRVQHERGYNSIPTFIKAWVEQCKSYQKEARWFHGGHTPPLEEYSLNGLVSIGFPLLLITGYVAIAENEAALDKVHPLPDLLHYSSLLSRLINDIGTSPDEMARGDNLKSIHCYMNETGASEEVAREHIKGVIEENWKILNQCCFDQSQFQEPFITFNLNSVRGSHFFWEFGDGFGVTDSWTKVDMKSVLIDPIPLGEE

[1] = substrate: CC(C)=CCC/C(C)=C/CC/C(C)=C/CO[P@@](=O)(O)OP(=O)(O)O; assay: GC quantification of product, steady-state kinetics; assay type: biochemical, Santalum album; details: apparent Km, HEPES buffer, 30 °C, 5 min, 5 μM enzyme
Text: GC quantification of product, steady-state kinetics on SaSS

[2] = substrate: CC(C)=CCC/C(C)=C/CC/C(C)=C/CO[P@@](=O)(O)OP(=O)(O)O; assay: as above; assay type: biochemical, Santalum album; details: apparent Km, HEPES buffer, 30 °C, 5 min, 5 μM enzyme; remark: listed apart in the source
Text: GC quantification of product, steady-state kinetics on SaSQS1

[3] = substrate: CC(C)=CCC/C(C)=C/CC/C(C)=C/CO[P@@](=O)(O)OP(=O)(O)O; assay: as above; assay type: biochemical, Santalum album; details: apparent Km, HEPES buffer, 30 °C, 5 min, 5 μM enzyme; remark: listed apart in the source
Text: GC quantification of product, steady-state kinetics on SaBS

[4] = substrate: CC(C)=CCC/C(C)=C/CC/C(C)=C/CO[P@@](=O)(O)OP(=O)(O)O; assay: as above; assay type: biochemical, Santalum album; details: apparent Km, HEPES buffer, 30 °C, 5 min, 5 μM enzyme; remark: listed apart in the source
Text: GC quantification of product, steady-state kinetics on SaSQS2

Sequence of SaFDS (E3W209 entry or part of it): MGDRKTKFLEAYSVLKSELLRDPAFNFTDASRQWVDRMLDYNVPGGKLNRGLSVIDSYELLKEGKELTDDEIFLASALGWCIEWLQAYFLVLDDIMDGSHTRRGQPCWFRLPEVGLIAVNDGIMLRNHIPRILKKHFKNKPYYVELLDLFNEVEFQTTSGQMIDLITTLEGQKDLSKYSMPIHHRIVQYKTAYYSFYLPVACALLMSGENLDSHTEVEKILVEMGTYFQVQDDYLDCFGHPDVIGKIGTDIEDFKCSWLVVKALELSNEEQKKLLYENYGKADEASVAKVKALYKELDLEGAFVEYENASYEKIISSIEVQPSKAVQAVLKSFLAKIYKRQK

Molecule: CC(C)=CCC/C(C)=C/COP(=O)(O)OP(=O)(O)O [GPP]
- GC / GC-MS of (E,E)-farnesol after alkaline phosphatase (SaFDS; with IPP): Incubation of recombinant SaFDS with equimolar concentrations of IPP and GPP

Molecule: CC(C)=CCC/C(C)=C/CC/C(C)=C/COP(=O)(O)OP(=O)(O)O [(E,E)-FPP]
- GC / GC-MS product analysis (SaSS): a mutant of SaSS (Y539W, NCBI: JQ690659) was able to cyclize (E,E)-FPP

Molecule: C=C(C)CCOP(=O)(O)OP(=O)(O)O [IPP]
- GC / GC-MS of (E,E)-farnesol after alkaline phosphatase (SaFDS; with GPP or DMAPP): Incubation of recombinant SaFDS with equimolar concentrations of IPP and GPP

B1: SaSS (Santalum album) (protein)
chain: MDSSTATAMTAPFIDPTDHVNLKTDTDASENRRMGNYKPSIWNYDFLQSLATHHNIVEERHLKLAEKLKGQVKFMFGAPMEPLAKLELVDVVQRLGLNHLFETEIKEALFSIYKDGSNGWWFGHLHATSLRFRLLRQCGLFIPQDVFKTFQNKTGEFDMKLCDNVKGLLSLYEASYLGWKGENILDEAKAFTTKCLKSAWENISEKWLAKRVKHALALPLHWRVPRIEARWFIEAYEQEANMNPTLLKLAKLDFNMVQSIHQKEIGELARWWVTTGLDKLAFARNNLLQSYMWSCAIASDPKFKLARETIVEIGSVLTVVDDGYDVYGSIDELDLYTSSVERWSCVEIDKLPNTLKLIFMSMFNKTNEVGLRVQHERGYNSIPTFIKAWVEQCKSYQKEARWFHGGHTPPLEEYSLNGLVSIGFPLLLITGYVAIAENEAALDKVHPLPDLLHYSSLLSRLINDIGTSPDEMARGDNLKSIHCYMNETGASEEVAREHIKGVIEENWKILNQCCFDQSQFQEPFITFNLNSVRGSHFFYEFGDGFGVTDSWTKVDMKSVLIDPIPLGEE
- Km [1]: 0.59 ± 0.24 µM
- kcat [1]: 0.00833 ± 0.0005 s⁻¹
- kcat/Km [1]: 15000 M⁻¹ s⁻¹

B2: SaSQS1 (Santalum album) (protein)
chain: MDLCQIPPTSPISPSVPFNGDDSSVVRRSANYPANLWDYDFLQSLGRHSSVTEEHVGLAEKLKGEVKSLITGPMEPLAKLEFIDSVRRLGLKYQFETEMKEALANISKDGYDSWWVDNLRATALRFRLLRENGIFVPQDVFERFQNKETGKFKNELCEDVKGLLNLYEASFLGWEGEDILDEARTFSTAQLKNVEGKISSPNLAKIVHHALDLPLHWRAIRYEARWFIDIYEDEEDMNPTLLKYAKLDFNIVQSFHQAEIGRLARWWVGTGLDKLPFARNGLIQSYMYAIGMLFEPHLGEVREMEAKVGALITTIDDVYDVYGTMEELELFTDITERWDINRVDQLPRNIRMPLLTMFNTSNDIGYWALKERGFNGIPYTAKVWADQLKSYTKEAKWFHEGHKPTLEEYLENALVSIGFPNLLVTSYLLTVDNPTKEKLDYVDSLPLFVRASCILCRIINDLGTSPDEMERGDNLKSIQCYMNETGASQEVAREHIEGLVRMWWKRLNKCLFEPSPFTEPFLSFTINVVRGSHFFYQYGDGYGNAESWTKNQGMSVLIHPITLDEE
- Km [2]: 11.12 ± 2.80 µM
- kcat [2]: 0.00583 ± 0.0005 s⁻¹
- kcat/Km [2]: 500 M⁻¹ s⁻¹

B3: SaBS (Santalum album) (protein)
chain: MDAFATSPTSALIKAVNCIAHVTPMAGEDSSENRRASNYKPSSWDYEFLQSLATSHNTVQEKHMKMAEKLKEEVKSMIKGQMEPVAKLELINILQRLGLKYRFESEIKEELFSLYKDGTDAWWVDNLHATALRFRLLRENGIFVPQDVFETLKDKSGKFKSQLCKDVRGLLSLYEASYLGWEGEDLLDEAKKFSTTNLNNVKESISSNTLGRLVKHALNLPLHWSAARYEARWFIDEYEKEENVNPNLLKYAKFDFNIVQSIHQRELGNLARWWVETGLDKLSFVRNTLMQNFMWGCAMVFEPQYGKVRDAAVKQASLIAMVDDVYDVYGSLEELEIFTDIVDRWDITGIDKLPRNISMILLTMFNTANQIGYDLLRDRGFNGIPHIAQAWATLCKKYLKEAKWYHSGYKPTLEEYLENGLVSISFVLSLVTAYLQTETLENLTYESAAYVNSVPPLVRYSGLLNRLYNDLGTSSAEIARGDTLKSIQCYMTQTGATEEAAREHIKGLVHEAWKGMNKCLFEQTPFAEPFVGFNVNTVRGSQFFYQHGDGYAVTESWTKDLSLSVLIHPIPLNEED
- Km [3]: 12.59 ± 1.40 µM
- kcat [3]: 0.000667 s⁻¹
- kcat/Km [3]: 50 M⁻¹ s⁻¹

B4: SaSQS2 (Santalum album) (protein)
chain: MASVIVEPIRCNNDNDVISTVVDDSSVVRRAANYPPNLWDYEFLQSLGDQCTVEEKHLKLADKLKEEVKSLIKQTMEPLTKLEFIDTVRRLGLKYQFETEVKEAVVMVSKYENDAWWIDNLHATSLRFRIMRENGIFVPQDVFERFKDTDGFKNQLCEDVKGLLSLYEASFLGWEGEDILDEARTFATSKLKSIEGKIPSPSLAKKVSHALDLPLHWRTIRYEARWFIDTYEEEEDVNLTLLRYAKLDFNIVQSFHQKEIGRLSRWWVGTGLDKMPFARNGLIQSYMYAIGMLFEPNLGEVREMEAKVGALITTIDDVYDVYGTMEELELFTDITNRWDISKADQLPRNIRMPLLTMFNTSNDIGYWALKERGFNGIPCTAKVWSDQLKSYTKEAKWFHEGHKPTLEEYLDNALVSIGFPNLLVTSYLLTVENPTKEKLDYVNSLPLFVRASCILCRIINDLGTSPDEMERGDNLKSIQCYMNEAGASQEVAREHIEGLVRMWWKRLNKCLFEPSPFAEPFLSFTVNVVRGSHFFYQYGDGYGNAESWTKKQGMSVLIHPIPLNEE
- Km [4]: 15.30 ± 3.83 µM
- kcat [4]: 0.00233 ± 0.000167 s⁻¹
- kcat/Km [4]: 150 M⁻¹ s⁻¹
